# Experimental data published in publication PMC8298264, “Function of cofactor Akirin2 in the regulation of gene expression in model human neutrophil-like HL60 cells” (Bioscience Reports, 2021).
# Test system: human HL60 cells
# Experiment: SWATH-MS proteomics, differential protein representation, akirin2 KO vs WT HL60 cells
# Type: cell-based
# Conditions: SWATH-MS, akirin2 KO vs WT HL60 cells, under-represented in KO
# How it was run: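 Three biological replicates per genotype; 150 µg protein FASP/trypsin digested; IDA library (3 µg digest); SWATH variable windows, 5 µg/sample, 3.6 s cycle; gradient 5–30% B 120 min then 30–60% B 15 min; 1% global FDR; TAS normalization.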
molecule,measurement,value
"sp¦Q14C86¦GAPD1_HUMAN (protein, UniProt Q14C86 1-1478, looked up) GTPase-activating protein and …: MVKLDIHTLAHHLKQERLYVNSEKQLIQRLNADVLKTAEKLYRTAWIAKQQRINLDRLIITSAEASPAECCQHAKILEDTQFVDGYKQLGFQETAYGEFLSRLRENPRLIASSLVAGEKLNQENTQSVIYTVFTSLYGNCIMQEDESYLLQVLRYLIEFELKESDNPRRLLRRGTCAFSILFKLFSEGLFSAKLFLTATLHEPIMQLLVEDEDHLETDPNKLIERFSPSQQEKLFGEKGSDRFRQKVQEMVESNEAKLVALVNKFIGYLKQNTYCFPHSLRWIVSQMYKTLSCVDRLEVGEVRAMCTDLLLACFICPAVVNPEQYGIISDAPINEVARFNLMQVGRLLQQLAMTGSEEGDPRTKSSLGKFDKSCVAAFLDVVIGGRAVETPPLSSVNLLEGLSRTVVYITYSQLITLVNFMKSVMSGDQLREDRMALDNLLANLPPAKPGKSSSLEMTPYNTPQLSPATTPANKKNRLPIATRSRSRTNMLMDLHMDHEGSSQETIQEVQPEEVLVISLGTGPQLTPGMMSENEVLNMQLSDGGQGDVPVDENKLHGKPDKTLRFSLCSDNLEGISEGPSNRSNSVSSLDLEGESVSELGAGPSGSNGVEALQLLEHEQATTQDNLDDKLRKFEIRDMMGLTDDRDISETVSETWSTDVLGSDFDPNIDEDRLQEIAGAAAENMLGSLLCLPGSGSVLLDPCTGSTISETTSEAWSVEVLPSDSEAPDLKQEERLQELESCSGLGSTSDDTDVREVSSRPSTPGLSVVSGISATSEDIPNKIEDLRSECSSDFGGKDSVTSPDMDEITHGAHQLTSPPSQSESLLAMFDPLSSHEGASAVVRPKVHYARPSHPPPDPPILEGAVGGNEARLPNFGSHVLTPAEMEAFKQRHSYPERLVRSRSSDIVSSVRRPMSDPSWNRRPGNEERELPPAAAIGATSLVAAPHSSSSSPSKDSSRGETEERKDSDDEKSDRNRPWWRKRFVSAMPKAPIPFRKKEKQEKDKDDLGPDRFSTLTDDPSPRLSAQAQVAEDILDKYRNAIKRTSPSDGAMANYESTGDNHDRDLSSKLLYHSDKEVMGDGESAHDSPRDEALQNISADDLPDSASQAAHPQDSAFSYRDAKKKLRLALCSADSVAFPVLTHSTRNGLPDHTDPEDNEIVCFLKVQIAEAINLQDKNLMAQLQETMRCVCRFDNRTCRKLLASIAEDYRKRAPYIAYLTRCRQGLQTTQAHLERLLQRVLRDKEVANRYFTTVCVRLLLESKEKKIREFIQDFQKLTAADDKTAQVEDFLQFLYGAMAQDVIWQNASEEQLQDAQLAIERSVMNRIFKLAFYPNQDGDILRDQVLHEHIQRLSKVVTANHRALQIPEVYLREAPWPSAQSEIRTISAYKTPRDKVQCILRMCSTIMNLLSLANEDSVPGADDFVPVLVFVLIKANPPCLLSTVQYISSFYASCLSGEESYWWMQFTAAVEFIKTIDDRK",Fold Change,0.7165
same,Log (Fold Change),-0.1448
